We go through nine substances from patent US9897611B2, “Molecule library constructed on the basis of backbone structure of microprotein” (NATIONAL INSTITUTE OF ADVANCED INDUSTRIAL SCIENCE AND …, priority 2012, dated 2018).

As usually defined, the Kd is the free concentration of one partner at which half of the binding sites on the other are occupied at equilibrium, for simple one-to-one binding.

Read-outs that look alike come from different tables or passages of the source. Ends that are not written are not given here.

Experiment [1] addresses T1, human IgG Fc region (Homo sapiens, UniProt P01857).
T1 construct: The Fc region was prepared by the papain digestion of a human monoclonal antibody IgG
Briefly: SPR binding affinity analysis on immobilized Fc region prepared by papain digestion of human monoclonal IgG.
Experimental: The Fc region was prepared by the papain digestion of a human monoclonal antibody IgG (Chugai Pharmaceutical Co., Ltd.) according to the instruction manual attached to Pierce® Fab Preparation Kit (Thermo Fisher Scientific Inc. Pierce) followed by purification by affinity chromatography using MabSelect SuRe (GE Healthcare Japan Corp.), HiTrap DEAE anion-exchange chromatography (GE Healthcare Japan Corp.), and gel filtration chromatography using Superdex 200 (GE Healthcare Japan Corp.).
The Fc region prepared in the section 1) of Example 2 was immobilized onto a sensor chip CM5 (GE Healthcare Japan Corp.) by the amine coupling method.
Subsequently, an example of binding affinity analysis by the surface plasmon resonance method is shown as to the functions of the thioredoxin fusion proteins with the prepared polypeptides. The analysis apparatus used was Biacore T100 (GE Healthcare Japan Corp.). […] The data was processed with Biacore T100 Evaluation Software (GE Healthcare Japan Corp.).
The assay employed Biacore T100 (GE Healthcare Japan Corp.).
Subsequently, the prepared 5 types of polypeptides were analyzed for their binding affinity by surface plasmon resonance. The assay employed Biacore T100 (GE Healthcare Japan Corp.).

The test system of experiment [2] is human Fc region manufactured by Jackson ImmunoResearch Laboratories, Inc. Briefly: SPR binding affinity analysis, peptide as analyte on immobilized human Fc region (Jackson ImmunoResearch). (In general: In SPR one partner is held on a chip, and binding of the other changes the refractive index at the surface.)
Text: A human Fc region manufactured by Jackson ImmunoResearch Laboratories, Inc. was immobilized onto a sensor chip CM5 (GE Healthcare Japan Corp.) by the amine coupling method using Amine Coupling Kit (GE Healthcare Japan Corp.).
[3] abbreviates: alanine variants of p17_2, Fc region immobilized on CM5, read-out: KD (nM), binding dissociation constant of p17_2 variant.
Where [4] appears, read: analyte on Fc region immobilized on CM5, HBS-T, 25° C., read-out: equilibrium dissociation constant KD.

For the substance “DAAWHLGELVWAT [FcIII-Ala peptide, reference compound]”, in experiment [1] (Fc region immobilized on CM5, 0.78-100 μM peptide, read-out: equilibrium dissociation constant KD by Scatchard plot using equilibrium value), the Kd turned out to be 42000 nM.
Turning to “p17_R50A: alanine variant of p17_2 polypeptide, SEQ ID NO: 63 (GPGISAFSPGRGVYDPETGTWYDAAWHLGELVWATYYDPETGTWEPDWQAMLGQ; Selected sequence, p17_R50A)”, the Kd in experiment [1] (setting [3]) turned out to be 7.8 nM.
Regarding “p17_2: SEQ ID NO: 47; 54 residues, p17 with Gly, Pro, Gly at the N terminus, from protease cleavage of thioredoxin fusion (GPGISAFSPGRGVYDPETGTWYDAAWHLGELVWATYYDPETGTWEPDWQRMLGQ; Selected sequence, p17_2)”, in experiment [1], the “improvement in affinity compared with FcIII-Ala peptide” value is recorded as “approximately 26000 fold” and the “improvement in binding affinity compared with pep24 peptide” value is 138 fold. Besides, the Kd in experiment [1] (setting [4]) was 1.6 nM.
As for “p17_P46A: alanine variant of p17_2 polypeptide, SEQ ID NO: 60 (GPGISAFSPGRGVYDPETGTWYDAAWHLGELVWATYYDPETGTWEADWQRMLGQ; Selected sequence, p17_P46A)”, in experiment [1] (setting [3]), the Kd amounted to 5.6 nM.
Take “GVVRQWSGGGGSGGGGRSSIAYGGG [2A1Gly peptide, 2A1 peptide with the chignolin variant region replaced by a glycine-rich linker]”: in experiment [2] (chignolin variant region replaced with glycine-rich linker), the “binding affinity relative to that of the 2A1 peptide” value was 1/1000. Moreover, the Kd in experiment [2] (peptide analyte, Fc immobilized on sensor chip CM5, HBS-T pH 7.4, 25° C., read-out: equilibrium dissociation constant KD) was 23000 nM.
For “p17_D47A: alanine variant of p17_2 polypeptide, SEQ ID NO: 61 (GPGISAFSPGRGVYDPETGTWYDAAWHLGELVWATYYDPETGTWEPAWQRMLGQ; Selected sequence, p17_D47A)”, in experiment [1] (setting [3]), the Kd came to 45 nM.
On the same count and under the same terms, the same measure for “p17_W48A: alanine variant of p17_2 polypeptide, SEQ ID NO: 62 (GPGISAFSPGRGVYDPETGTWYDAAWHLGELVWATYYDPETGTWEPDAQRMLGQ; Selected sequence, p17_W48A)”: 200 nM.
Turning to “DAAWHLGELVWATYYDPETGTWLPDWQTMAQK [pep21 peptide]”, the “improvement in affinity compared with FcIII-Ala peptide” value in experiment [1] is “approximately 420 fold”.
For “DAAWHLGELVWATYYDPETGTWQPDWLYMTTR [pep14 peptide]”, the Kd in experiment [1] (setting [4]) was 120 nM.
